Tested on: hES cells
Assay: Embryoid body differentiation of hES cells, visual scoring of beating EBs
Format: cell-based, human
Conditions: growth factor 10 ng/ml added to END2-CM, day 12, compared to END2-CM alone
Protocol: This procedure describes the formation of embryoid bodies (EB) from collagenase-derived hES cell cultures. After formation the EBs were then exposed to END2 conditioned medium (CM).
Enzymatically passaged hES cells grown on feeder cells were washed once with PBS^+ and treated with Collagenase IV (1 mg/ml) for 3-4 min at 37° C. The Collagenase IV solution was replaced by DMEM and the cells were mechanically dissociated with a pipette tip. Cells were then harvested using a cell scraper and the cell suspension was transferred to a 50 ml tube (Falcon). Cell clumps were collected by gravity and the supernatant was aspirated. Cells were resuspended in fresh DMEM medium aiming to uniformly disperse the cell clumps in the suspension. An equal volume of the cell suspension was then transferred to ultra low attachment plates (Costar). […]
In suspension culture, EBs are formed in ultra low attachment plates in SF medium over night. […] Usually, cells were cultured over a period of 12-13 days before the visual analysis of the proportion of beating EBs under a microscope was performed followed by cell collection for additional readouts. Multiple beating areas on single EBs were not counted separately. Values are expressed as a percentage of contracting EBs compared to […] in a single well of a 6-well tray. […] An average value per well was calculated and presented.

B1: Bmp6: recombinant human Bmp6 (R&D) (protein, UniProt P22004 375-513, looked up)
Bone morphogenetic protein 6: SASSRRRQQSRNRSTQSQDVARVSSASDYNSSELKTACRKHELYVSFQDLGWQDWIIAPKGYAANYCDGECSFPLNAHMNATNHAIVQTLVHLMNPEYVPKPCCAPTKLNAISVLYFDDNSNVILKKYRNMVVRACGCH
  CM induction activity (number of beating areas): enhance CM induction activity
